In patent US12383631B2, “Immune antigen specific IL-18 immunocytokines and uses thereof” (Bright Peak Therapeutics AG, priority 2022, dated 2025):

Legend:
[1] = target: human Fc gamma receptor III FcγRIIIa/CD16; assay: Human FcγR binding ELISA, FcγRIIIa (Example 8); conditions: antibody coated on plate, soluble receptor titrated, read-out: FcγRIIIa (CD16) binding affinity
Experimental: (§1) The interaction of the unmodified and of conjugated antibodies with human Fc gamma receptors I (FcγRI/CD64), with human Fc gamma receptors IIa (FcγRIIa/CD32a), with inhibitory human Fc gamma receptors IIb (FcγRIIb/CD32b), and with human Fc gamma receptors III FcγRIIIa/CD16 were measured by ELISA.
(§2) Briefly, Corning high-binding half-area plates (Fisher Scientific, Reinach, Switzerland) were coated overnight at 4° C. with 25 μl of unmodified and of conjugated anti-PD1 antibodies at 2.5 μg/ml in PBS. Plates were then washed four times with 100 μl of PBS-0.02% Tween20. Plates surfaces were blocked with 25 μl of PBS-0.02% Tween20-1% BSA at 37° C. during 1 h. Plates were then washed four times with 100 μl of PBS-0.02% Tween20. Then twenty-five microliters of either recombinant Human Fc gamma RI/CD64 Protein (R&D systems, 1257-FC-050, CF), recombinant Human Fc gamma RIIA/CD32a (H167) Protein (R&D systems, 9595-CD-050, CF), recombinant Human Fc gamma RIIB/CD32b Avi-tag Protein (R&D systems, AVI1875-050, CF), or recombinant Human Fc gamma RIIIA/CD16a Protein (R&D systems, 4325-FC-050; CF) were added in five-fold serial dilutions ranging from 1000 nM to 0.001 nM into PBS-0.02% Tween20-0.1% BSA and incubated at 37° C. during 2 h. Plates were then washed four times with 100 μl of PBS-0.02% Tween20. Twenty-five microliters of a 1/500 HRP-anti-His antibody in PBS—0.02% Tween20-0.1% BSA (R&D systems, anti-HIS—HRP Ab, #MAB050H) were added to each well and plates were incubated at Room Temperature during 1 h. Plates were then washed four times with 100 μl of PBS-0.02% Tween20. Fifty microliters of TMB substrate reagent (#CL07, Merck, Buchs, Switzerland) were added to each well and incubated at 37° C. during 5 min. After 5 min at 37° C., Horseradish peroxidase reaction was stopped by adding 50 μl/well of 0.5M H2SO4 stop solution. ELISA signal was then measured at 450 nm on an EnSpire plate reader from Perkin Elmer (Schwerzenbach, Switzerland).

[2] = target: T1, human Fc gamma receptor IIa (FcγRIIa/CD32a) (Homo sapiens, UniProt P12318); assay: Human FcγR binding ELISA, FcγRIIa (Example 8); conditions: antibody coated on plate, soluble receptor titrated, read-out: FcγRIIa (CD32a) binding affinity
T1 sequence (P12318 36-218): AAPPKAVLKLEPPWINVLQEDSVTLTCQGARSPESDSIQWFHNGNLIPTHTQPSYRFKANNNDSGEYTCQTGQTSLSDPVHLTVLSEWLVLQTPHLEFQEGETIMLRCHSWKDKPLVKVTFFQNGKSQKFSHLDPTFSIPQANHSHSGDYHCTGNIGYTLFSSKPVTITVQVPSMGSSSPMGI
Experimental: as §1, §2

[3] = target: T2, human Fc gamma receptor IIb (FcγRIIb/CD32b) (Homo sapiens, UniProt P31994); assay: Human FcγR binding ELISA, FcγRIIb (Example 8); conditions: antibody coated on plate, soluble receptor titrated, read-out: FcγRIIb (CD32b) binding affinity
T2 sequence (P31994 43-310): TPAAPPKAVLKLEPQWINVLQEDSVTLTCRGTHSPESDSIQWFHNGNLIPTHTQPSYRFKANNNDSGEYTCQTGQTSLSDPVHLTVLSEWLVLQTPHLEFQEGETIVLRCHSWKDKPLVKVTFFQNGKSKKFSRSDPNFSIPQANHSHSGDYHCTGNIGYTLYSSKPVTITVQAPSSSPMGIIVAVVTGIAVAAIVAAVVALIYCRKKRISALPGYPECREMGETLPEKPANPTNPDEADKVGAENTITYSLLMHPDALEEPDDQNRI
Experimental: as §1, §2

[4] = target: human Fc gamma receptor I (FcγRI/CD64) (Homo sapiens, UniProt P12314); assay: Human FcγR binding ELISA, FcγRI (Example 8); conditions: antibody coated on plate, soluble receptor titrated, read-out: FcγRI/(CD64) binding affinity
Experimental: as §1, §2

PD-1/PD-L1 interaction = PD-1/PD-L1 interaction (Homo sapiens, UniProt Q15116+Q9NZQ7); assay: PD-1/PD-L1 Blockade Bioassay, Jurkat NFAT-RE luciferase / PD-L1 aAPC CHO-K1 (Example 7); format: cell-based; conditions: table titled activity in the PD-1/PD-L1 Blockade Cellular Assay; NFAT-RE luminescence, 6 h; read-out: KD FcRn
Experimental: For immunocytokine compositions which comprise PD-1 or PD-L1 antibodies or antigen binding fragments, the experiment outlined below is performed to assess the ability of the immunocytokines to interfere with the PD-1/PD-L1 pathway. The assay is the PD-1/PD-L1 Blockade Bioassay from Promega (Cat #J1250, Madison, WI, USA). PD-1/PD-L1 Blockade Bioassay is a bioluminescent cell-based assay based on the co-culture of effector cells with target cells mimicking an immunological synapse. Jurkat T cells expressing human PD-1 and a luciferase reporter driven by a NFAT response element (NFAT-RE) are activated by CHO-K1 cells expressing human PD-L1 and an engineered cell surface protein designed to activate Jurkat cells cognate TCRs. Concurrent interaction PD-1/PD-L1 inhibits TCR signaling and represses NFAT-RE-mediated luminescence. […]
Briefly, PD-L1 aAPC/CHO-K1 Target cells were plated in white tissue culture 96-wells plates and cultured overnight at 37° C./5% CO2. Test molecules were measured in four-fold serial dilutions starting at 1 μM down to 0.002 nM and pre-incubated on target cells for 10 min before the addition of freshly thawed PD-1 Jurkat effector cells. After 6 h at 37° C./5% CO2, activity NFAT-RE luminescent reporter was evaluated by the addition of Bio-Glo reagent and measured on an ENSPTRE® plate reader (1 sec/well) from Perkin Elmer (Schwerzenbach, Switzerland).

Chain of human Fc gamma receptor III FcγRIIIa/CD16 (P08637 17-254): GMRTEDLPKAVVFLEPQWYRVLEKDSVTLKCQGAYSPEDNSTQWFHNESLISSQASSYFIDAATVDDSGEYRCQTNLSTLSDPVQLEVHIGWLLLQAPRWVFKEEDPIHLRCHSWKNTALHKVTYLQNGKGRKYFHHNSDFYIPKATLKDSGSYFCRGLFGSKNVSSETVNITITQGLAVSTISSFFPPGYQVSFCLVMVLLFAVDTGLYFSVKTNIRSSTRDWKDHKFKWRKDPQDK
Chain of human Fc gamma receptor I (FcγRI/CD64) (P12314 16-374): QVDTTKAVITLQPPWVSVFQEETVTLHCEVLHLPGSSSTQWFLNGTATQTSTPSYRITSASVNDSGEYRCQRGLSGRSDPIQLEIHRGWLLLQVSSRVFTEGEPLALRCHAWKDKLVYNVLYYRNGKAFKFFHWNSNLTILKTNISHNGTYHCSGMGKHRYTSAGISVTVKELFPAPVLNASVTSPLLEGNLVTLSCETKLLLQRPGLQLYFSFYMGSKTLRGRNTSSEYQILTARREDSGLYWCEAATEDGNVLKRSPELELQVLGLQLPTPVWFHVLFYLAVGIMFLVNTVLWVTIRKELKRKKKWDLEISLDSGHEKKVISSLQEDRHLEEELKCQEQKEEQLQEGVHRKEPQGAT
Chain of PD-1/PD-L1 interaction (Q15116 25-288): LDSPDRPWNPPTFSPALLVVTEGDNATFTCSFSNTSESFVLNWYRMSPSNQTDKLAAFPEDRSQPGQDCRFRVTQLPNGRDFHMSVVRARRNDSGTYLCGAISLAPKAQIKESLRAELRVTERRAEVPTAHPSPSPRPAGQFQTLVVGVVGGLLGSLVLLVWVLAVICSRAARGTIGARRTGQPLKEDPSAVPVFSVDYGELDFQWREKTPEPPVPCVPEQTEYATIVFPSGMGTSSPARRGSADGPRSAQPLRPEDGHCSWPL
Chain of PD-1/PD-L1 interaction (Q9NZQ7 19-290): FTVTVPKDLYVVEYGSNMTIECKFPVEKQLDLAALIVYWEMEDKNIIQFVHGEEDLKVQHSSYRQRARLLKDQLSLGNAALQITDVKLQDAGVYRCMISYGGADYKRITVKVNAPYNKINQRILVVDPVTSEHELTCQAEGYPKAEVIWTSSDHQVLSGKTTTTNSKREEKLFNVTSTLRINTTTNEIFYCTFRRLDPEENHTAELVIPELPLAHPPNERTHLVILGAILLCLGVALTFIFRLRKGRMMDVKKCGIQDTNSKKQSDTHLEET

Substance	Kd [1] [nM]	Kd [2] [nM]	Kd [3] [nM]	Kd [4] [nM]	PD-1/PD-L1 blockade potency (PD-1/PD-L1 interaction) [nM]
LZM-009: anti-PD-1 antibody (VH SEQ ID NO: 376, VL SEQ ID NO: 377), unconjugated reference antibody [reference compound]	1710	1350	2630	0.315	5.8
Composition B: immunocytokine: Atezolizumab/Tecentriq (anti-PD-L1) conjugated to IL-18 polypeptide SEQ ID NO: 30	492	1740	> 10000	10.8	–
Atezolizumab/Tecentriq: anti-PD-L1 antibody, unconjugated reference antibody [reference compound]	356	1370	> 10000	9.17	0.664
